Source: patent US20260042834A1, “ANTI-CORTICOTROPIN-RELEASING HORMONE ANTIBODIES AND POLYCYSTIC OVARY SYNDROME” (HBM ALPHA THERAPEUTICS, INC., priority 2022, published 2026)
Read-outs that look alike come from different tables or passages of the source.

T1: biotinylated CRH (Homo sapiens, UniProt P06850)
T1 construct: purchased GL Biochem 784751
T1 sequence (P06850 154-194): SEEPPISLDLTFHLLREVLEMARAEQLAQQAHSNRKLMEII


Columns and labels:
[1] = test system: human CRHR1 (hUCN1-induced); assay: Human UCN1-induced luciferase reporter assay, CHO-CRE-hCRHR1 cells; format: cell-based; details: Table 10; 1 nM hUCN1
Description: CHO-CRE-hCRHR1 and CHO-CRE-hCRHR2 cells were harvested with trypsin-EDTA (Life Technologies, Cat #:12604-013). Cells were centrifuged at 1,000 rpm for 5 min and resuspended in growth medium. Cells were counted using a cell counter, seeded at 5,000 cells per 100 μl to 96-well flat plates, and incubated overnight. 50 μl of 4× serially diluted antibody (8 points, 1/3 diluted by growth medium) or CP 376395 hydrochloride (TOCRIS, Cat #:3212) (8 points, 1/10 diluted by growth medium) was added to plates, followed by 50 μl 4×hUCN1 (4× is 4 nM, final is 1 nM) to CHO-CRE-hCRHR1 cells or CHO-CRE-hCRHR2 cells. Plates were then incubated for 4-6 hours at 37° C. in a CO2 incubator. Following this, 60 μl of culture medium was removed, to which was added 60 μl of Bio-Glo luciferase, followed by incubation for 10 min at RT. Plates were then read in a luciferase plate reader (EnVision, PerkinElmer).

[2] = molecular target: T2, N-terminal region plus central region, central region only, central region plus C-terminal region of CRH (Homo sapiens, UniProt P06850); assay: ELISA determining the binding region of CRH; details: dash = no binding
T2 construct: N-terminal region plus the central region (CT biotin), the central region only (NT biotin or CT biotin)
Description: Streptavidin (Thermo, Cat: 21125) was diluted in PBS to a concentration of 2 μg/ml. 100 μl of diluted streptavidin was added per well to ELISA microplates, and the plates were incubated overnight at 4° C. Plates were blocked with ELISA blocking solution (containing 2% w/v BSA, 0.05% (v/v) Tween-20, pH 7.4 PBS buffer) at 37° C. for 1 hour, and then incubated with 1 μg/mL N-terminal region plus the central region (CT biotin), the central region only (NT biotin or CT biotin), or the central region plus C-terminal region (NT biotin) of CRH for 1 hour at 37° C. Plates were then washed and incubated with diluted anti-CRH antibody (Ab) at 15 μg/ml (100 nM, 10 diluted, 8 points) for 1 hour at 37° C. Subsequently, plates were washed and incubated with HRP-conjugated goat anti-human IgG (H+L) antibody (Jackson, Cat: 109-035-088) at 37° C. for 1 hour. 100 μL of 3,3′,5,5′-tetramethylbenzidine (TMB) substrate (Biopanda, Cat: TMB-S-003) was added, and the plates were incubated at room temperature for 15 minutes. 100 μL of ELISA stopping solution (Solarbio, Cat #: C1058) was added to terminate the reaction, and the optical density at 450 nm (OD450 nm) was determined by an ELISA plate reader (Molecular Devices, Spectra max 384 plus).

[3] = molecular target: T1, biotinylated CRH; assay: Affinity determination with Octet; format: binding
Procedure, shortened: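 Biolayer interferometry: 30 nM biotinylated CRH loaded onto streptavidin sensors, 2-fold antibody dilutions as analyte in PBS kinetics buffer. Association 180 s, dissociation 800 s, glycine pH 1.5 regeneration; double-referenced data fitted for affinity.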

[4] = central plus C-terminal region CRH peptide, NT-biotin (SEQ ID NO: 483), read-out: ELISA EC50 C-Ter-CRH (NT-Bion)
[5] = central region CRH peptide, CT-biotin (SEQ ID NO: 485), read-out: ELISA EC50 Central-CRH (CT-Bion)
[6] = central region CRH peptide, NT-biotin (SEQ ID NO: 484), read-out: ELISA EC50 Central-CRH (NT-Bion)

| Molecule | CHO-CRE-hCRHR1 1 nM hUCH1 IC50 [1] | EC50 [2, 4] [nM] | EC50 [2, 5] [nM] | EC50 [2, 6] [nM] | kdis [3] [s⁻¹] | kon [3] [M⁻¹ s⁻¹] |
| --- | --- | --- | --- | --- | --- | --- |
| PR302309-8: humanized variant of Series 7 mAb PR302309; VH SEQ ID NO: 261, VL SEQ ID NO: 318 (antibody, V domains shown, PR302309-10 VH, PR302309-11 VH, PR302309-12 VH, PR302309-14 VH,PR302309-7 VH, PR302309-8 VH, PR302309-9 VH; PR302309-17 VL, PR302309-18 VL, PR302309-19 VL, PR302309-2 VL,PR302309-8 VL) VH: QIQLVQSGSELKKPGASVKVSCKASGYTFTNYGMNWVRQAPGQGLEWMGWINTYTGEPIYTDDFKGRFVFSLDTSVSTAYLQISSLKAEDTAVYYCSRSTMITTGGVFAYWGQGTLVTVSS VL: DVVMTQSPLSLPVTLGQPASISCRSSQTIVHSDGNTYLEWYQQRPGQSPRLLIYKVSNRFSGVPDRFSGSGSGTDFTLKISRVEAEDLGVYYCFQGSHVPWTFGGGTKVEIK | No Inhibition | > 100 | > 100 | > 100 | 0.000136 | 266000 |
| PR302309-11: humanized variant of Series 7 mAb PR302309; VH SEQ ID NO: 261, VL SEQ ID NO: 315 (antibody, V domains shown, PR302309-10 VH, PR302309-11 VH, PR302309-12 VH, PR302309-14 VH,PR302309-7 VH, PR302309-8 VH, PR302309-9 VH; PR302309-11 VL, PR302309-5 VL) VH: QIQLVQSGSELKKPGASVKVSCKASGYTFTNYGMNWVRQAPGQGLEWMGWINTYTGEPIYTDDFKGRFVFSLDTSVSTAYLQISSLKAEDTAVYYCSRSTMITTGGVFAYWGQGTLVTVSS VL: DIVMTQTPLSSPVTLGQPASISCRSSQTIVHSDGNTYLEWLQQRPGQPPRLLIYKVSNRFSGVPDRFSGSGAGTDFTLKISRVEAEDVGVYYCFQGSHVPWTFGGGTKVEIK | No Inhibition | > 100 | > 100 | > 100 | – | 154000 |
